# Earlier results as cited in publication PMC4283463 (Journal of pharmaceutical sciences, 2014).
substance,measurement,value
human growth hormone [hGH],decrease in stability on carbamidomethylation of all four Cys residues,~ 37.7 kJ/mol
